Assay results reported in publication PMC11375011, “Inducible auto-phosphorylation regulates a widespread family of nucleotidyltransferase toxins” (Nature Communications, 2024).
“Also recorded” adds a separate entry of the source.

Target: MenA1
Conditions: sites T39

Substance: MenT1
- other: observed/calculated Stokes radius ratio against the heterotrimer: weaker; reference 0.97; also recorded: same; reference 0.97
